Key:
[1] = substrate: O=[N+]([O-])c1ccc(OC2O[C@H](CO)[C@@H](O[C@H]3O[C@H](CO)[C@@H](O[C@H]4O[C@H](CO)[C@@H](O[C@H]5O[C@H](CO)[C@@H](O[C@H]6O[C@H](CO)[C@@H](O)[C@H](O)[C@H]6O)[C@H](O)[C@H]5O)[C@H](O)[C@H]4O)[C@H](O)[C@H]3O)[C@H](O)[C@H]2O)cc1; test: Enzymatic activity with 4NP-DP5 as substrate, Michaelis-Menten kinetics (WT); type: biochemical, Bacillus licheniformis; settings: other: substrate 4NP-DP5 0-1 mM, 35° C., 50 mM MOPS, 50 mM NaCl, 2 mM CaCl2, pH 7.15, WT α-amylase
Procedure: (§1) The enzymatic activity of B. licheniformis α-amylase WT and mutants was measured using 4-nitrophenyl-maltopentaoside (4NP-DP5) as a substrate, 4 nitrophenol and maltopentaose are formed, this reaction can be followed by measuring the change in OD 405 The assay was performed at 35° C. in 50 mM MOPS, 50 mM NaCl, 2 mM CaCl2 (PH 7.15) and 0-1 mM 4NP-DP5.
(§2) Initial rates were measured and E-nitrophenol was taken as 10,000 l/M/cm.

[2] = substrate: O=[N+]([O-])c1ccc(OC2O[C@H](CO)[C@@H](O[C@H]3O[C@H](CO)[C@@H](O[C@H]4O[C@H](CO)[C@@H](O[C@H]5O[C@H](CO)[C@@H](O[C@H]6O[C@H](CO)[C@@H](O)[C@H](O)[C@H]6O)[C@H](O)[C@H]5O)[C@H](O)[C@H]4O)[C@H](O)[C@H]3O)[C@H](O)[C@H]2O)cc1; test: Enzymatic activity with 4NP-DP5 as substrate, Michaelis-Menten kinetics (mutant 2D5); type: biochemical, Bacillus licheniformis; settings: other: substrate 4NP-DP5 0-1 mM, 35° C., 50 mM MOPS, 50 mM NaCl, 2 mM CaCl2, pH 7.15, 2D5 α-amylase
Procedure: 2D5 contained the D7 mutation and in addition threonine 149 was replaced by isoleucine (2D5=H133Y, T149I).
as §1, §2

B1: Bacillus licheniformis α-amylase, WT (wild type, B. licheniformis T5; SEQ ID NO: 3) (Bacillus licheniformis) (protein)
chain: ANLNGTLMQYFEWYMPNDGQHWKRLQNDSAYLAEHGITAVWIPPAYKGTSQADVGYGAYDLYDLGEFHQKGTVRTKYGTKGELQSAIKSLHSRDINVYGDVVINHKGGADATEDVTAVEVDPADRNRVISGEHRIKAWTHFHFPGRGSTYSDFKWHWYHFDGTDWDESRKLNRIYKFQGKAWDWEVSNENGNYDYLMYADIDYDHPDVAAEIKRWGTWYANELQLDGFRLDAVKHIKFSFLRDWVNHVREKTGKEMFTVAEYWQNDLGALENYLNKTNFNHSVFDVPLHYQFHAASTQGGGYDMRKLLNSTVVSKHPLKAVTFVDNHDTQPGQSLESTVQTWFKPLAYAFILTRESGYPQVFYGDMYGTKGDSQREIPALKHKIEPILKARKQYAYGAQHDYFDHHDIVGWTREGDSSVANSGLAALITDGPGGAKRMYVGRQNAGETWHDITGNRSEPVVINSEGWGEFHVNGGSVSIYVQR
notes: made in house; host or cells: E. coli WK6
Protein B1 has a Km [1] of 112 µM and a Vmax [1] of 66.7 ± 0.9 µmol/min/mg.

B2: Bacillus licheniformis α-amylase mutant 2D5 (H133Y, T149I) (Bacillus licheniformis; H162Y/T178I) (protein)
chain: ANLNGTLMQYFEWYMPNDGQHWKRLQNDSAYLAEHGITAVWIPPAYKGTSQADVGYGAYDLYDLGEFHQKGTVRTKYGTKGELQSAIKSLHSRDINVYGDVVINHKGGADATEDVTAVEVDPADRNRVISGEYRIKAWTHFHFPGRGSIYSDFKWHWYHFDGTDWDESRKLNRIYKFQGKAWDWEVSNENGNYDYLMYADIDYDHPDVAAEIKRWGTWYANELQLDGFRLDAVKHIKFSFLRDWVNHVREKTGKEMFTVAEYWQNDLGALENYLNKTNFNHSVFDVPLHYQFHAASTQGGGYDMRKLLNSTVVSKHPLKAVTFVDNHDTQPGQSLESTVQTWFKPLAYAFILTRESGYPQVFYGDMYGTKGDSQREIPALKHKIEPILKARKQYAYGAQHDYFDHHDIVGWTREGDSSVANSGLAALITDGPGGAKRMYVGRQNAGETWHDITGNRSEPVVINSEGWGEFHVNGGSVSIYVQR
notes: as for B1
For B2, the Km [2] was 119 µM and the Vmax [2] was 66.3 ± 0.7 µmol/min/mg.
